Here are results for two proteins from article PMC5430844, “RRM domain of ALS/FTD-causing FUS characteristic of irreversible unfolding spontaneously self-assembles into amyloid fibrils” (Scientific Reports, 2017).

Data set [1] concerns the molecule itself. Put plainly: 1D 1H NMR line broadening and intensity loss; N-terminal LC domain alone, 40 µM, 25 °C, 1 mM phosphate buffer, pH 6.8 compared with pH 5.0; non-exchangeable protons over −0.4–1.8 ppm.
Data set [2] deals with the molecule itself. Kind of data set: time-lapsed intrinsic UV and visible fluorescence, ThT-binding fluorescence, far-UV CD and negative-stain EM of an incubated sample; RRM alone, 40 µM in 1 mM phosphate buffer pH 6.8, incubated at 25 °C up to 12 days; EM at 3, 6 and 10 days; monomer to amyloid fibrils.

B1: FUS N-terminal low-sequence complexity (LC) domain (1–267) (domain or fragment, human, UniProt P35637 1-267, looked up)
chain: MASNDYTQQATQSYGAYPTQPGQGYSQQSSQPYGQQSYSGYSQSTDTSGYGQSSYSSYGQSQNTGYGTQSTPQGYGSTGGYGSSQSSQSSYGQQSSYPGYGQQPAPSSTSGSYGSSSQSSSYGQPQSGSYSQQPSYGGQQQSYGQQQSYNPPQGYGQQNQYNSSSGGGGGGGGGGNYGQDQSSMSSGGGSGGGYGNQDQSGGGGSGGYGQQDRGGRGRGGSGGGGGGGGGGYNRSSGGYEPRGRGGGRGGRGGMGGSDRGGFNKFGG
notes: Fused in Sarcoma/Translocated in Sarcoma (FUS), 526 residues, N-terminal LC domain, residues 1-267 (QGSY-rich prion-like region 1–165 and G-rich region 166–267); Cloned by PCR from FUS cDNA into a modified pET28a; also called N-terminal LC domain; FUS (1–267)
For the protein B1, in data set [1], the binding result is reported as “binds”.

B2: FUS RRM domain (282–371) (domain or fragment, human, UniProt P35637 282-371, looked up)
chain: SDNNTIFVQGLGENVTIESVADYFKQIGIIKTNKKTGQPMINLYTDRETGKLKGEATVSFDDPPSAKAAIDWFDGKEFSGNPIKVSFATR
notes: Fused in Sarcoma/Translocated in Sarcoma (FUS), 526 residues, RNA-recognition motif, residues 282-371 (N-terminal residue Ser282); Cloned by PCR from FUS cDNA into a modified pET28a; The introduction gives the RRM as 285–371, but the construct used is 282–371; also called FUS (282–371); RNA-recognition motif
For the protein B2, the binding result in data set [2] is listed as “binds”.
